Reference: US20260184782A1 (TWIST BIOSCIENCE, published 2026)

B1: TIGIT-SC156 (Fc fusion)
VHH: EVQLVESGGGLVQPGGSLRLSCAASGNTFSGGFMGWFRQAPGKEREWVASVLRGGYTWYADSVKGRFTISADNSKNTAYLQMNSLKPEDTAVYYCTTEGYDFWSGYYDYWGQGTLVTVSS
notes: VHH-Fc
B2: TIGIT-SC162 (Fc fusion)
VHH: EVQLVESGGGLVQPGGSLRLSCAASGNTFSGGFMGWFRQAPGKEREWVASVLRGGYTWYADSVKGRFTISADNSKNTAYLQMNSLKPEDTAVYYCTTDRAIGVRPLFDHWGQGTLVTVSS
notes: VHH-Fc
B3: TIGIT-SC1 (Fc fusion)
VHH: EVQLVESGGGLVQPGGSLRLSCAASGFTLNDYAMGWFRQAPGKERELVAWIARYDGSTLYADSVKGRFTISADNSKNTAYLQMNSLKPEDTAVYYCARVDWALNAAPFDYWGQGTLVTVSS
notes: VHH-Fc
B4: TIGIT-SC2 (Fc fusion)
VHH: EVQLVESGGGLVQPGGSLRLSCAASGFTLSSNWMGWFRQAPGKEREMVAAIDWSGGSALYADSVKGRFTISADNSKNTAYLQMNSLKPEDTAVYYCAKDALSNSARFDHWGQGTLVTVSS
notes: VHH-Fc
B5: TIGIT-SC3 (Fc fusion)
VHH: EVQLVESGGGLVQPGGSLRLSCAASGTFQRINAMGWFRQAPGKEREFVSTINWSGSNTYYADSVKGRFTISADNSKNTAYLQMNSLKPEDTAVYYCASSYSSSSGLGDIWGQGTLVTVSS
notes: VHH-Fc
B6: TIGIT-SC14 (Fc fusion)
VHH: EVQLVESGGGLVQPGGSLRLSCAASGSISSIHAMGWFRQAPGKEREFVATISRSGVGTFYADSVKGRFTISADNSKNTAYLQMNSLKPEDTAVYYCASSYSSSSGLGDIWGQGTLVTVSS
notes: VHH-Fc
B7: TIGIT-SC4 (Fc fusion)
VHH: EVQLVESGGGLVQPGGSLRLSCAASGSIDRINAMGWFRQATGKEREWVASVLRGGYTWYADSVKGRFTISADNSKNTAYLQMNSLKPEDTAVYYCARDSYSTSFWFDPWGQGTLVTVSS
notes: VHH-Fc
B8: TIGIT-SC5 (Fc fusion)
VHH: EVQLVESGGGLVQPGGSLRLSCAASGFAFGDSWMGWFRQAPGKEREWVASVLRGGYTWYADSVKGRFTISADNSKNTAYLQMNSLKPEDTAVYYCARESEGWFDPWGQGTLVTVSS
notes: VHH-Fc
B9: TIGIT-SC23 (Fc fusion)
VHH: EVQLVESGGGLVQPGGSLRLSCAASGFTLSSNWMGWFRQAPGKEREWVASVLRGGYTWYADSVKGRFTISADNSKNTAYLQMNSLKPEDTAVYYCARERLGWFDPWGQGTLVTVSS
notes: VHH-Fc
B10: TIGIT-SC183 (Fc fusion)
VHH: EVQLVESGGGLVQPGGSLRLSCAASGFAFGDSWMGWFRQAPGKEREWVASVLRGGYTWYADSVKGRFTISADNSKNTAYLQMNSLKPEDTAVYYCAKDRSYSFDYWGQGTLVTVSS
notes: VHH-Fc
B11: TIGIT-SC6 (Fc fusion)
VHH: EVQLVESGGGLVQPGGSLRLSCAASGNTFSGGFMGWFRQAPGKEREWVASVLRGGYTWYADSVKGRFTISADNSKNTAYLQMNSLKPEDTAVYYCAISPVAWHAKFDSWGQGTLVTVSS
notes: VHH-Fc
B12: TIGIT-SC7 (Fc fusion)
VHH: EVQLVESGGGLVQPGGSLRLSCAASGRSFSMYVMGWFRQAPGKEREGVSFISGSDGSTLYADSVKGRFTISADNSKNTAYLQMNSLKPEDTAVYYCARGSIAARPVFFDYWGQGTLVTVSS
notes: VHH-Fc
B13: TIGIT-SC8 (Fc fusion)
VHH: EVQLVESGGGLVQPGGSLRLSCAASGFAFSSYAMGWFRQAPGKEREFVARITWNGGSAYYADSVKGRFTISADNSKNTAYLQMNSLKPEDTAVYYCAAGATGWFDPWGQGTLVTVSS
notes: VHH-Fc
B14: TIGIT-SC9 (Fc fusion)
VHH: EVQLVESGGGLVQPGGSLRLSCAASGNTFSGGFMGWFRQAPGKEREWVASVLRGGYTWYADSVKGRFTISADNSKNTAYLQMNSLKPEDTAVYYCVNGYSYGRDYWGQGTLVTVSS
notes: VHH-Fc
B15: TIGIT-SC10 (Fc fusion)
VHH: EVQLVESGGGLVQPGGSLRLSCAASGNTFSGGFMGWFRQAPGKEREWVASVLRGGYTWYADSVKGRFTISADNSKNTAYLQMNSLKPEDTAVYYCASDPWGTRYFDHWGQGTLVTVSS
notes: VHH-Fc
B16: TIGIT-SC21 (Fc fusion)
VHH: EVQLVESGGGLVQPGGSLRLSCAASGNTFSGGFMGWFRQAPGKEREWVASVLRGGYTWYADSVKGRFTISADNSKNTAYLQMNSLKPEDTAVYYCARGGAGSDWFGPWGQGTLVTVSS
notes: VHH-Fc
B17: TIGIT-SC61 (Fc fusion)
VHH: EVQLVESGGGLVQPGGSLRLSCAASGNTFSGGFMGWFRQAPGKEREWVASVLRGGYTWYADSVKGRFTISADNSKNTAYLQMNSLKPEDTAVYYCTRGDTAMATFDYWGQGTLVTVSS
notes: VHH-Fc
B18: TIGIT-SC175 (Fc fusion)
VHH: EVQLVESGGGLVQPGGSLRLSCAASGNTFSGGFMGWFRQAPGKEREWVASVLRGGYTWYADSVKGRFTISADNSKNTAYLQMNSLKPEDTAVYYCTTDALRFLEWPWWGQGTLVTVSS
notes: VHH-Fc
B19: TIGIT-SC12 (Fc fusion)
VHH: EVQLVESGGGLVQPGGSLRLSCAASGRTFSAYGMGWFRQAPGKEREFVAAITPSSRTTYYADSVKGRFTISADNSKNTAYLQMNSLKPEDTAVYYCAKDNWGEWLMPWWGQGTLVTVSS
notes: VHH-Fc
B20: TIGIT-SC13 (Fc fusion)
VHH: EVQLVESGGGLVQPGGSLRLSCAASGRTFSFMGWFRQAPGKEREWVASVLRGGYTWYADSVKGRFTISADNSKNTAYLQMNSLKPEDTAVYYCATESMDYWGQGTLVTVSS
notes: VHH-Fc
B21: TIGIT-SC15 (Fc fusion)
VHH: EVQLVESGGGLVQPGGSLRLSCAASGSILSFNHIGWFRQAPGKEREGVAWIARYDGSTLYADSVKGRFTISADNSKNTAYLQMNSLKPEDTAVYYCARARGGYVDYWGQGTLVTVSS
notes: VHH-Fc
B22: TIGIT-SC16 (Fc fusion)
VHH: EVQLVESGGGLVQPGGSLRLSCAASGTTFSSAAMGWFRQAPGKEREWVASVLRGGYTWYADSVKGRFTISADNSKNTAYLQMNSLKPEDTAVYYCARDPVELGDYWGQGTLVTVSS
notes: VHH-Fc
B23: TIGIT-SC165 (Fc fusion)
VHH: EVQLVESGGGLVQPGGSLRLSCAASGNTFSGGFMGWFRQAPGKEREWVASVLRGGYTWYADSVKGRFTISADNSKNTAYLQMNSLKPEDTAVYYCTTEGSGWRNWGQGTLVTVSS
notes: VHH-Fc
B24: TIGIT-SC17 (Fc fusion)
VHH: EVQLVESGGGLVQPGGSLRLSCAASGFDFSVSWMGWFRQAPGKEREWVASVLRGGYTWYADSVKGRFTISADNSKNTAYLQMNSLKPEDTAVYYCAREGSWFDYWGQGTLVTVSS
notes: VHH-Fc
B25: TIGIT-SC37 (Fc fusion)
VHH: EVQLVESGGGLVQPGGSLRLSCAASGNTFSGGFMGWFRQAPGKEREWVASVLRGGYTWYADSVKGRFTISADNSKNTAYLQMNSLKPEDTAVYYCVFGGVWQDVWGQGTLVTVSS
notes: VHH-Fc
B26: TIGIT-SC164 (Fc fusion)
VHH: EVQLVESGGGLVQPGGSLRLSCAASGFTFDRSWMGWFRQAPGKEREFVASVLRGGYTWYADSVKGRFTISADNSKNTAYLQMNSLKPEDTAVYYCTTEGSGWRNWGQGTLVTVSS
notes: VHH-Fc
B27: TIGIT-SC189 (Fc fusion)
VHH: EVQLVESGGGLVQPGGSLRLSCAASGNTFSGGFMGWFRQAPGKEREWVASVLRGGYTWYADSVKGRFTISADNSKNTAYLQMNSLKPEDTAVYYCVTDVGAPDYWGQGTLVTVSS
notes: VHH-Fc
B28: TIGIT-SC18 (Fc fusion)
VHH: EVQLVESGGGLVQPGGSLRLSCAASGFSLDYYAMGWFRQAPGKEREVVAIIDTNGDNTLYADSVKGRFTISADNSKNTAYLQMNSLKPEDTAVYYCARGRGYGDYVGAYWGQGTLVTVSS
notes: VHH-Fc
B29: TIGIT-SC19 (Fc fusion)
VHH: EVQLVESGGGLVQPGGSLRLSCAASGRTYDAMGWFRQAPGKEREWVASVLRGGYTWYADSVKGRFTISADNSKNTAYLQMNSLKPEDTAVYYCARDVDYRFDSWGQGTLVTVSS
notes: VHH-Fc
B30: TIGIT-SC20 (Fc fusion)
VHH: EVQLVESGGGLVQPGGSLRLSCAASGNTFSGGFMGWFRQAPGKEREWVASVLRGGYTWYADSVKGRFTISADNSKNTAYLQMNSLKPEDTAVYYCATPRGYWGQGTLVTVSS
notes: VHH-Fc
B31: TIGIT-SC22 (Fc fusion)
VHH: EVQLVESGGGLVQPGGSLRLSCAASGFTLENNMMGWFRQAPGKEREMVAAISWSGGSALYADSVKGRFTISADNSKNTAYLQMNSLKPEDTAVYYCARGDGYSYGNFDYWGQGTLVTVSS
notes: VHH-Fc
B32: TIGIT-SC173 (Fc fusion)
VHH: EVQLVESGGGLVQPGGSLRLSCAASGFTFSPSWMGWFRQAPGKEREWVASVLRGGYTWYADSVKGRFTISADNSKNTAYLQMNSLKPEDTAVYYCATERRLGVWGQGTLVTVSS
notes: VHH-Fc
B33: TIGIT-SC25 (Fc fusion)
VHH: EVQLVESGGGLVQPGGSLRLSCAASGNTFSGGFMGWFRQAPGKEREWVASVLRGGYTWYADSVKGRFTISADNSKNTAYLQMNSLKPEDTAVYYCTTVGYGDYWGQGTLVTVSS
notes: VHH-Fc

Target: T1, human TIGIT-Fc (human, UniProt Q495A1 22-141, limits assumed)
T1 construct: not shown: Fc; not described
T1 sequence (looked up): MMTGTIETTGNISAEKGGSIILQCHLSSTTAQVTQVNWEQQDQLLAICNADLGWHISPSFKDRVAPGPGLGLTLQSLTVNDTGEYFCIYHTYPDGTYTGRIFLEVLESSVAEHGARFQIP
Assay: CD155 competition ELISA, single point; further: test concentration or dose not given here
Experimental: TIGIT/CD155 inhibition of VHH-Fcs were assessed using an ELISA assay (Table 10B). Briefly, human TIGIT-Fc was coated on a plate & then incubated with VHH-Fcs and human CD155-biotin. Bound CD155-biotin was detected using a streptavidin-HRP conjugate visualized with TMB. Strong inhibitors from the single point screen were titrated to determine EC50 (Table 10C).

Binder | OD (450 nm) [OD]
B1 | 0.701
B2 | 0.423
B3 | 0.649
B4 | 0.407
B5 | 0.748
B6 | 0.61
B7 | 0.579
B8 | 0.564
B9 | 0.424
B10 | 0.5
B11 | 0.558
B12 | 0.735
B13 | 0.817
B14 | 0.756
B15 | 0.756
B16 | 0.607
B17 | 0.343

Binder | OD (450 nm) [OD]
B18 | 0.59
B19 | 0.622
B20 | 0.666
B21 | 0.576
B22 | 0.471
B23 | 0.324
B24 | 0.553
B25 | 0.341
B26 | 0.363
B27 | 0.486
B28 | 0.716
B29 | 0.746
B30 | 0.726
B31 | 0.552
B32 | 0.578
B33 | 0.469
